The results in this text go back to patent US20160340420A1 (Novartis, published 2016).

In test [1] the target is T1, biotinylated VEGF (human, UniProt P15692-4 27-191, limits assumed, biotinylated (sites not given)).
T1 construct: The ELISA paragraph says only 'biotinylated VEGF'; also called human vascular endothelial growth factor A; VEGF-A
Briefly: competition ELISA with VEGFR2/Fc for biotinylated VEGF; 6% 1008, 9% sucrose, 20 mM citrate, 0.1% PS80, pH 6.25; 25 C, 8 weeks. Here is the method:
(§1) The competition ELISA was used for potency testing.
(§2) The samples were stored at 2-8° C., 25° C., 40° C. and light cabinet (LC); they also went through three cycles of freeze-thaw (FT). The samples were pulled according to the schedule shown in Table 30, and analyzed by various analytical methods.
(In general: In an ELISA, binding on a coated surface is turned into a signal by an enzyme label.)

The target in test [2] is T1, biotinylated VEGF. In words: competition ELISA with VEGFR2/Fc for biotinylated VEGF; 6% 1008, 9% sucrose, 20 mM citrate, 0.1% PS80, pH 6.25; 40 C, 4 weeks. Here is the method: as §1, §2
The target of test [3] is T1, biotinylated VEGF. Briefly: competition ELISA with VEGFR2/Fc for biotinylated VEGF; 6% 1008, 9% sucrose, 20 mM citrate, 0.1% PS80, pH 6.25; 2-8 C, 0 weeks. The protocol: as §1, §2
Test [4] concerns the target T1, biotinylated VEGF. Briefly: competition ELISA with VEGFR2/Fc for biotinylated VEGF; 6% 1008, 9% sucrose, 20 mM citrate, 0.1% PS80, pH 6.25; 2-8 C, 8 weeks. The protocol: as §1, §2
The target in test [5] is T1, biotinylated VEGF. In words: competition ELISA with VEGFR2/Fc for biotinylated VEGF; 6% 1008, 9% sucrose, 20 mM citrate, 0.1% PS80, pH 6.25; 25 C, 12 weeks. Here is the method:
as §1, §2

Test [6] addresses T1, biotinylated VEGF. In words: competition ELISA with VEGFR2/Fc for biotinylated VEGF; 6% 1008, 9% sucrose, 20 mM citrate, 0.1% PS80, pH 6.25; 25 C, 26 weeks. Here is the method:
as §1, §2

In test [7] the target is T1, biotinylated VEGF. In words: competition ELISA with VEGFR2/Fc for biotinylated VEGF; 6% 1008, 9% sucrose, 20 mM citrate, 0.1% PS80, pH 6.25; 2-8 C, 12 weeks. Here is the method: as §1, §2
Test [8] has as its target T1, biotinylated VEGF. Briefly: competition ELISA with VEGFR2/Fc for biotinylated VEGF; 6% 1008, 9% sucrose, 20 mM citrate, 0.1% PS80, pH 6.25; 2-8 C, 26 weeks. The protocol: as §1, §2
For test [9], the target named is T1, biotinylated VEGF. Briefly: competition ELISA with VEGFR2/Fc for biotinylated VEGF; 6% 1008, 9% sucrose, 20 mM citrate, 0.1% PS80, pH 6.25; 40 C column, 0 weeks (initial). The protocol: as §1, §2
Test [10] concerns the target T1, biotinylated VEGF. Briefly: competition ELISA with VEGFR2/Fc for biotinylated VEGF; control formulation (60 mg/ml 1008, 20 mM citrate, 0.001% PS20, pH 6.25), 5 weeks at 40 C. The protocol:
as §1
The control formulation was filtered through 0.2 um syringe filter and stored at 40° C., ambient room temperature, and refrigerator. The samples were pulled at 0, 2 and 5 weeks for 40° C. samples, and 26 weeks for samples stored at ambient room temperature and refrigerator. The selected stability samples were tested for pH, osmolality, content by A280, SEC, IEX CGE and ELISA.

T1 sequence (P15692 other isoform, or with tags, fused parts or gaps limits assumed): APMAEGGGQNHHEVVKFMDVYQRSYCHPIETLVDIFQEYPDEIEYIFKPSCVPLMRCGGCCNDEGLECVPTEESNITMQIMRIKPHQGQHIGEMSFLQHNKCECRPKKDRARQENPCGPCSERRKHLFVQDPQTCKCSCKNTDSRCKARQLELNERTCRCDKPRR

B1: 1008 antibody (scFv)
scFv: MEIVMTQSPSTLSASVGDRVIITCQASEIIHSWLAWYQQKPGKAPKLLIYLASTLASGVPSRFSGSGSGAEFTLTISSLQPDDFATYYCQNVYLASTNGANFGQGTKLTVLGGGGGSGGGGSGGGGSGGGGSEVQLVESGGGLVQPGGSLRLSCTASGFSLTDYYYMTWVRQAPGKGLEWVGFIDPDDDPYYATWAKGRFTISRDNSKNTLYLQMNSLRAEDTAVYYCAGGDHNSGWGLDIWGQGTLVTVSS
notes: also called anti-VEGF antibody
B1: the “ELISA (relative potency against 1008 reference standard)” value is 1.1 ratio to 1008 reference standard with biotinylated VEGF [1]; 0.87 ratio to 1008 reference standard with biotinylated VEGF [2]; 0.86 ratio to 1008 reference standard in the test with biotinylated VEGF [3]; 1.2 ratio to 1008 reference standard with biotinylated VEGF [4]; 0.92 ratio to 1008 reference standard with biotinylated VEGF [5]; 1.1 ratio to 1008 reference standard with biotinylated VEGF [6]. Besides, the “ELISA (relative potency against 1008 reference standard)” value with biotinylated VEGF [7] is 0.97 ratio to 1008 reference standard; with biotinylated VEGF [8], 1.1 ratio to 1008 reference standard; in the test with biotinylated VEGF [9] it was 0.86 ratio to 1008 reference standard; with biotinylated VEGF [10], 1 ratio to 1008 reference standard.
